The values that follow come from paper PMC9278655.

The target of assay [1] is Crimson. The assay is described as follows: SEC; HPLC (LC-20A), Superdex 200 10/300 GL; 200 uL of fluorescent protein loaded at 10 uM; 0.5 mL/min; 50 mM PBS pH 7. On the technique in general: Size exclusion chromatography separates by hydrodynamic size, large species first.
Assay [2] addresses mKate2. Described as above.

What is called stoichiometry N is the number of molecules, sites or subunits per partner or assembly. Turning to Crimson, the stoichiometry N in assay [1] was determined as 2.
mKate2 yielded a stoichiometry N in assay [2] of 2.
